The record followed here is patent US20100081638A1 (KOREA RESEARCH INSTITUTE OF BIOSCIENCE AND BIOTECHNOLOGY, published 2010).

For this assay, the target named is T1, focal adhesion kinase (FAK) (UniProt Q05397 2-1052).
T1 construct: Endogenous protein in lysates of SNU449 cell lines
As to the kind of experiment: physical association in SNU449 cell lysates with or without tiarellic acid (FIG. 10; method not described).

T1 sequence (Q05397 2-1052 limits assumed): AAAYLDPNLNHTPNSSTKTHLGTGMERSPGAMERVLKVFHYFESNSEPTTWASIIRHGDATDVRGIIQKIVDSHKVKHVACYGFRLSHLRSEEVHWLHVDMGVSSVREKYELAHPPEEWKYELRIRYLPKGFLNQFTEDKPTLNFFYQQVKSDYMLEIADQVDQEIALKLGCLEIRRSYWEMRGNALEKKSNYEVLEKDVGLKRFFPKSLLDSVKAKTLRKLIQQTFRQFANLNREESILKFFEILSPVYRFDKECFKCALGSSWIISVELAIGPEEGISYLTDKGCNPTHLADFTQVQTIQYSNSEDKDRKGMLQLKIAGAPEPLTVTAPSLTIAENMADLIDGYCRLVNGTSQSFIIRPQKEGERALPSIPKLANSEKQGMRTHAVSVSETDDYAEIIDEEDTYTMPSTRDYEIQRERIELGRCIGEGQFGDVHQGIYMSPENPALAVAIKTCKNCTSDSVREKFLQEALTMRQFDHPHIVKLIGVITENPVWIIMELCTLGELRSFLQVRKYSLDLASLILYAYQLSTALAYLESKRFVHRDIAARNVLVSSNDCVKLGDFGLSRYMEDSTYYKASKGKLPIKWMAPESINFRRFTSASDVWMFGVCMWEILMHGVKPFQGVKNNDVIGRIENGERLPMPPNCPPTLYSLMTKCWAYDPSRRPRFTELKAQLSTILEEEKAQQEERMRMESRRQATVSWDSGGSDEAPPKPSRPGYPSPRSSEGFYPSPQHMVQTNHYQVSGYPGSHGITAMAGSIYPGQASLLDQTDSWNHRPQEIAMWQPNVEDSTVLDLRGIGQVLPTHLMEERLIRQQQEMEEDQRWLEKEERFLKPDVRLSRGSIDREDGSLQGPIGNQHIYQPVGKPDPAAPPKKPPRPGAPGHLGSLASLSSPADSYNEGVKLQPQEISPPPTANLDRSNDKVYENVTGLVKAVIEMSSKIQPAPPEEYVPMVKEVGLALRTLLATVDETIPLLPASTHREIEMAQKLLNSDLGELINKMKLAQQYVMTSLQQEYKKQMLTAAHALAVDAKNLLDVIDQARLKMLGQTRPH

B1: p130Cas (other, UniProt P56945 1-870, looked up)
chain: MNHLNVLAKALYDNVAESPDELSFRKGDIMTVLEQDTQGLDGWWLCSLHGRQGIVPGNRLKILVGMYDKKPAGPGPGPPATPAQPQPGLHAPAPPASQYTPMLPNTYQPQPDSVYLVPTPSKAQQGLYQVPGPSPQFQSPPAKQTSTFSKQTPHHPFPSPATDLYQVPPGPGGPAQDIYQVPPSAGMGHDIYQVPPSMDTRSWEGTKPPAKVVVPTRVGQGYVYEAAQPEQDEYDIPRHLLAPGPQDIYDVPPVRGLLPSQYGQEVYDTPPMAVKGPNGRDPLLEVYDVPPSVEKGLPPSNHHAVYDVPPSVSKDVPDGPLLREETYDVPPAFAKAKPFDPARTPLVLAAPPPDSPPAEDVYDVPPPAPDLYDVPPGLRRPGPGTLYDVPRERVLPPEVADGGVVDSGVYAVPPPAEREAPAEGKRLSASSTGSTRSSQSASSLEVAGPGREPLELEVAVEALARLQQGVSATVAHLLDLAGSAGATGSWRSPSEPQEPLVQDLQAAVAAVQSAVHELLEFARSAVGNAAHTSDRALHAKLSRQLQKMEDVHQTLVAHGQALDAGRGGSGATLEDLDRLVACSRAVPEDAKQLASFLHGNASLLFRRTKATAPGPEGGGTLHPNPTDKTSSIQSRPLPSPPKFTSQDSPDGQYENSEGGWMEDYDYVHLQGKEEFEKTQKELLEKGSITRQGKSQLELQQLKQFERLEQEVSRPIDHDLANWTPAQPLAPGRTGGLGPSDRQLLLFYLEQCEANLTTLTNAVDAFFTAVATNQPPKIFVAHSKFVILSAHKLVFIGDTLSRQAKAADVRSQVTHYSNLLCDLLRGIVATTKAAALQYPSPSAAQDMVERVKELGHSTQQFRRVLGQLAAA
notes: Endogenous protein in lysates of SNU449 cell lines
Regarding B1, the binding result is reported as “binds”.
